Reference: article PMC10954474, “https://orcid.org/0000-0002-6027-2265 Manakova Elena Institute of Biotechnology, Life Sciences Center, Vilnius University, Sauletekio av. 7, LT-10257, Vilnius, Lithuania”

Columns and labels:
[1] = target: T1, AfAgo;AfAgo-N (Archaeoglobus fulgidus …, UniProt O28951;A0A075WKW4 1-427;1-250, |); assay: cryo-EM; 3.56 A; EMSA: 40 mM Tris-acetate, 1 mM EDTA, pH 8.4, 5 mM Mg(OAc)2, 0.1 mg/ml BSA, 1 mM DTT, 10% glycerol, room temperature (25 C), 1 h; conditions: protein: recombinant;recombinant; tags: ;His6-TEV (N-terminal); copies: 1;1; blunt
[2] = target: T1, AfAgo;AfAgo-N; assay: EMSA; preloaded guide, 5 mM Mg2+; EMSA: 40 mM Tris-acetate, 1 mM EDTA, pH 8.4, 5 mM Mg(OAc)2, 0.1 mg/ml BSA, 1 mM DTT, 10% glycerol, room temperature (25 C), 1 h; conditions: protein: recombinant;recombinant; tags: ;His6-TEV (N-terminal); copies: 1;1; label: 5'-32P target; g1-g8 complementary
[3] = target: T1, AfAgo;AfAgo-N; assay: EMSA; 5 mM Mg2+; EMSA: 40 mM Tris-acetate, 1 mM EDTA, pH 8.4, 5 mM Mg(OAc)2, 0.1 mg/ml BSA, 1 mM DTT, 10% glycerol, room temperature (25 C), 1 h; conditions: protein: recombinant;recombinant, tags: ;His6-TEV (N-terminal), copies: 1;1, label: 5'-32P
[4] = target: T1, AfAgo;AfAgo-N; assay: X-ray crystallography; 2.5 A; 5 mM Mg2+; EMSA: 40 mM Tris-acetate, 1 mM EDTA, pH 8.4, 5 mM Mg(OAc)2, 0.1 mg/ml BSA, 1 mM DTT, 10% glycerol, room temperature (25 C), 1 h; conditions: protein: recombinant;recombinant; tags: ;His6-TEV (N-terminal); copies: 1;1; 2 strands partially annealed, 3 bp, in crystal
[5] = target: T2, AfAgo (Archaeoglobus fulgidus DSM4304, UniProt O28951 1-427); assay: EMSA; 5 mM Mg2+; EMSA: 40 mM Tris-acetate, 1 mM EDTA, pH 8.4, 5 mM Mg(OAc)2, 0.1 mg/ml BSA, 1 mM DTT, 10% glycerol, room temperature (25 C), 1 h; conditions: protein: recombinant; label: 5'-32P; blunt
T2 sequence: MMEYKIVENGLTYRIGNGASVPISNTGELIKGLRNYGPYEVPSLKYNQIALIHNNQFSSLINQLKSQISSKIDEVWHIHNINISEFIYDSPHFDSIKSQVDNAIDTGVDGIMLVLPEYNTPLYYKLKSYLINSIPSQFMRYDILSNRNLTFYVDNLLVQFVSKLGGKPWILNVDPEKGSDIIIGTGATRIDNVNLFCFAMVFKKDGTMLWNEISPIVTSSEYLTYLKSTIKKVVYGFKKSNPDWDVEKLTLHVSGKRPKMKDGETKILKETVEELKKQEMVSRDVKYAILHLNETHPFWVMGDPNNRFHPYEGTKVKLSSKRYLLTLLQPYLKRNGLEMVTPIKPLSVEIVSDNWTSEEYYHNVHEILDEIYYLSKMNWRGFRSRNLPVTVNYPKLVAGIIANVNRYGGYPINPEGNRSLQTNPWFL

[6] = target: T1, AfAgo;AfAgo-N; assay: SEC-SAXS; 5 mM Mg2+; SASDRX8; EMSA: 40 mM Tris-acetate, 1 mM EDTA, pH 8.4, 5 mM Mg(OAc)2, 0.1 mg/ml BSA, 1 mM DTT, 10% glycerol, room temperature (25 C), 1 h; conditions: protein: recombinant;recombinant; tags: ;His6-TEV (N-terminal); copies: 1;1; blunt, self-complementary
[7] = target: T1, AfAgo;AfAgo-N; assay: cryo-EM; 2.83 A; EMSA: 40 mM Tris-acetate, 1 mM EDTA, pH 8.4, 5 mM Mg(OAc)2, 0.1 mg/ml BSA, 1 mM DTT, 10% glycerol, room temperature (25 C), 1 h; conditions: protein: recombinant;recombinant; tags: ;His6-TEV (N-terminal); copies: 1;1; 30 nt guide on 51 nt target with target overhangs

B1: g17/t17 MZ-1800/MZ-1455 (DNA:RNA)
RNA: AUUGUACACGGCCGAAU
DNA: ATTCGGCCGTGTACAAT
modifications: 5'-phosphate guide
B1: binds [1].

B2: gRNA MZ-1480 / tDNA MZ-1560 (DNA:RNA)
RNA: AUUGUACACGGCCGAAU
DNA: CGGAATATATGTACAAT
modifications: 5'-phosphate guide
B2: binds [2].

ATTGTACACGGCCGAAT (ssDNA) [ssDNA MZ-1447]: binds ([3]; single-stranded).

ATCGACCAGGCTACG (ssDNA, 5'-phosphate) [GS-851]: binds [4].

B3: dsDNA MZ-1447/1455 (dsDNA)
DNA 1: ATTGTACACGGCCGAAT
DNA 2: ATTCGGCCGTGTACAAT
modifications: 5'-phosphate
B3: binds ([3]; blunt); binds [5].

AUUGUACACGGCCGAAU (ssRNA) [ssRNA MZ-1480]: binds ([3]; single-stranded).

B4: MZ-1288 14 bp DNA (dsDNA)
DNA 1: ATTGTGGCCACAAT
DNA 2: ATTGTGGCCACAAT
modifications: 5'-phosphate
B4: binds [6].

B5: g30/t51 MZ-1745/MZ-1747 (DNA:RNA)
RNA: AGGAGGGCGGAGCCUAUGGAAAAACGCCAC
DNA: GCCGCGCCGGTGGCGTTTTTCCATAGGCTCCGCCCTCCTGCCAGAGTTCGC
modifications: 5'-phosphate guide
B5: binds [7].

B6: RNA/DNA MZ-1480/1455 (DNA:RNA)
RNA: AUUGUACACGGCCGAAU
DNA: ATTCGGCCGTGTACAAT
modifications: 5'-phosphate
B6: binds ([3]; blunt); binds [5].
